Experimental data reported in PMC2199173.

Molecular target: purified soluble human FasL (AL-1) (human)
Test: SEC

purified soluble human FasL (AL-1) (ligand)
stoichiometry N: 3
